# Results from the supplement of paper PMC10567573.
# B1: APBB1IP (parent)
# chain: FNYSVGFKDLNESLNALEDQDLDA
# Variants of: B1
# Test: protein stability index of a GFP-peptide fusion (GPS, HEK-293T) (PSI 1-6); higher = more stable
# Conditions: c terminus: a fixed tail appended
# 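Note: lentivirally expressed fusions sorted by FACS into six bins by GFP to DsRed ratio, PSI derived from sequencing read proportions per bin multiplied by bin number.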
row,Variant,protein stability index
1,FNYSVGFKDLNASLNALEDQDLDA,3.74
2,FNYSVGFKDLNCSLNALEDQDLDA,2.82
3,FNYSVGFKTLNESLNALEDQDLDA,4.2
4,FNYSVGFKPLNESLNALEDQDLDA,4.15
5,FNYSVGFKQLNESLNALEDQDLDA,4.22
6,FNYSVGFKWLNESLNALEDQDLDA,2.7
7,FNYSVGFKCLNESLNALEDQDLDA,3.13
8,FNYSVGFKNLNESLNALEDQDLDA,4.31
9,FNYSVGFKSLNESLNALEDQDLDA,3.45
10,FNYSVGFKLLNESLNALEDQDLDA,3.09
11,FNYSVGFKGLNESLNALEDQDLDA,4.39
12,FNYSVGFKELNESLNALEDQDLDA,4.25
13,FNYSVGFKRLNESLNALEDQDLDA,4.05
14,FNYSVGFKMLNESLNALEDQDLDA,3.86
15,FNYSVGFKYLNESLNALEDQDLDA,3.44
16,FNYSVGFKILNESLNALEDQDLDA,2.49
17,FNYSVGFKALNESLNALEDQDLDA,3.99
18,FNYSVGFKFLNESLNALEDQDLDA,3.52
19,FNYSVGFKVLNESLNALEDQDLDA,2.67
20,FNYSVGFKHLNESLNALEDQDLDA,4.08
21,FNYSVGFKKLNESLNALEDQDLDA,4.19
22,FNYSVGEKDLNESLNALEDQDLDA,5.24
23,FNYSVGYKDLNESLNALEDQDLDA,4.55
24,FNYSVGMKDLNESLNALEDQDLDA,4.48

row,Variant,protein stability index
1,FNYSVGHKDLNESLNALEDQDLDA,4.57
2,FNYSVGGKDLNESLNALEDQDLDA,5.22
3,FNYSVGLKDLNESLNALEDQDLDA,4.53
4,FNYSVGWKDLNESLNALEDQDLDA,3.9
5,FNYSVGAKDLNESLNALEDQDLDA,5.3
6,FNYSVGTKDLNESLNALEDQDLDA,5.27
7,FNYSVGSKDLNESLNALEDQDLDA,5.41
8,FNYSVGDKDLNESLNALEDQDLDA,5.21
9,FNYSVGIKDLNESLNALEDQDLDA,4.21
10,FNYSVGPKDLNESLNALEDQDLDA,4.49
11,FNYSVGCKDLNESLNALEDQDLDA,5.09
12,FNYSVGQKDLNESLNALEDQDLDA,5.15
13,FNYSVGVKDLNESLNALEDQDLDA,4.92
14,FNYSVGKKDLNESLNALEDQDLDA,5.18
15,FNYSVGNKDLNESLNALEDQDLDA,5.13
16,FNYSVGRKDLNESLNALEDQDLDA,5.71
17,FNYDVGFKDLNESLNALEDQDLDA,5.11
18,FNYTVGFKDLNESLNALEDQDLDA,4.62
19,FNYAVGFKDLNESLNALEDQDLDA,4.53
20,FNYFVGFKDLNESLNALEDQDLDA,3.24
21,FNYKVGFKDLNESLNALEDQDLDA,4.02
22,FNYGVGFKDLNESLNALEDQDLDA,4.88
23,FNYCVGFKDLNESLNALEDQDLDA,4.31
24,FNYPVGFKDLNESLNALEDQDLDA,3.29

row,Variant,protein stability index
1,FNYYVGFKDLNESLNALEDQDLDA,3.42
2,FNYLVGFKDLNESLNALEDQDLDA,3.71
3,FNYMVGFKDLNESLNALEDQDLDA,4.23
4,FNYIVGFKDLNESLNALEDQDLDA,3.76
5,FNYNVGFKDLNESLNALEDQDLDA,4.61
6,FNYHVGFKDLNESLNALEDQDLDA,4.79
7,FNYVVGFKDLNESLNALEDQDLDA,3.72
8,FNYQVGFKDLNESLNALEDQDLDA,5.1
9,FNYWVGFKDLNESLNALEDQDLDA,2.56
10,FNYEVGFKDLNESLNALEDQDLDA,5.53
11,FNYRVGFKDLNESLNALEDQDLDA,4.82
12,FNYSVDFKDLNESLNALEDQDLDA,4.85
13,FNYSVMFKDLNESLNALEDQDLDA,3.12
14,FNYSVSFKDLNESLNALEDQDLDA,3.89
15,FNYSVKFKDLNESLNALEDQDLDA,4.05
16,FNYSVFFKDLNESLNALEDQDLDA,2.58
17,FNYSVRFKDLNESLNALEDQDLDA,3.9
18,FNYSVVFKDLNESLNALEDQDLDA,2.55
19,FNYSVYFKDLNESLNALEDQDLDA,1.71
20,FNYSVEFKDLNESLNALEDQDLDA,4.2
21,FNYSVNFKDLNESLNALEDQDLDA,4.04
22,FNYSVLFKDLNESLNALEDQDLDA,2.3
23,FNYSVCFKDLNESLNALEDQDLDA,3
24,FNYSVWFKDLNESLNALEDQDLDA,2.32

row,Variant,protein stability index
1,FNYSVIFKDLNESLNALEDQDLDA,3.03
2,FNYSVTFKDLNESLNALEDQDLDA,3.57
3,FNYSVPFKDLNESLNALEDQDLDA,4.73
4,FNYSVQFKDLNESLNALEDQDLDA,4.17
5,FNYSVHFKDLNESLNALEDQDLDA,3.71
6,FNYSVAFKDLNESLNALEDQDLDA,3.34
7,FNYSMGFKDLNESLNALEDQDLDA,4.51
8,FNYSSGFKDLNESLNALEDQDLDA,4.86
9,FNYSTGFKDLNESLNALEDQDLDA,4.96
10,FNYSHGFKDLNESLNALEDQDLDA,4.76
11,FNYSKGFKDLNESLNALEDQDLDA,4.65
12,FNYSAGFKDLNESLNALEDQDLDA,4.95
13,FNYSFGFKDLNESLNALEDQDLDA,4.34
14,FNYSDGFKDLNESLNALEDQDLDA,4.65
15,FNYSCGFKDLNESLNALEDQDLDA,4.08
16,FNYSIGFKDLNESLNALEDQDLDA,4.38
17,FNYSRGFKDLNESLNALEDQDLDA,4.82
18,FNYSEGFKDLNESLNALEDQDLDA,4.47
19,FNYSPGFKDLNESLNALEDQDLDA,4.99
20,FNYSNGFKDLNESLNALEDQDLDA,4.36
21,FNYSGGFKDLNESLNALEDQDLDA,4.19
22,FNYSWGFKDLNESLNALEDQDLDA,3.68
23,FNYSYGFKDLNESLNALEDQDLDA,4.09
24,FNYSQGFKDLNESLNALEDQDLDA,4.65

row,Variant,protein stability index
1,FNYSLGFKDLNESLNALEDQDLDA,4.55
2,FNWSVGFKDLNESLNALEDQDLDA,3.87
3,FNPSVGFKDLNESLNALEDQDLDA,5.15
4,FNGSVGFKDLNESLNALEDQDLDA,4.82
5,FNSSVGFKDLNESLNALEDQDLDA,4.76
6,FNTSVGFKDLNESLNALEDQDLDA,5.54
7,FNKSVGFKDLNESLNALEDQDLDA,5.17
8,FNRSVGFKDLNESLNALEDQDLDA,5.36
9,FNVSVGFKDLNESLNALEDQDLDA,3.54
10,FNASVGFKDLNESLNALEDQDLDA,5.06
11,FNLSVGFKDLNESLNALEDQDLDA,4.52
12,FNCSVGFKDLNESLNALEDQDLDA,4.74
13,FNHSVGFKDLNESLNALEDQDLDA,4.07
14,FNDSVGFKDLNESLNALEDQDLDA,4.89
15,FNNSVGFKDLNESLNALEDQDLDA,5.12
16,FNMSVGFKDLNESLNALEDQDLDA,4.4
17,FNESVGFKDLNESLNALEDQDLDA,5.43
18,FNISVGFKDLNESLNALEDQDLDA,4.21
19,FNFSVGFKDLNESLNALEDQDLDA,3.71
20,FNQSVGFKDLNESLNALEDQDLDA,5.36
21,FNYSVGFKDLGESLNALEDQDLDA,4.29
22,FNYSVGFKDLEESLNALEDQDLDA,4.88
23,FNYSVGFKDLIESLNALEDQDLDA,3.31
24,FNYSVGFKDLMESLNALEDQDLDA,3.68

row,Variant,protein stability index
1,FNYSVGFKDLCESLNALEDQDLDA,4.06
2,FNYSVGFKDLQESLNALEDQDLDA,4.38
3,FNYSVGFKDLVESLNALEDQDLDA,3.45
4,FNYSVGFKDLRESLNALEDQDLDA,4.18
5,FNYSVGFKDLAESLNALEDQDLDA,4.45
6,FNYSVGFKDLHESLNALEDQDLDA,4.21
7,FNYSVGFKDLKESLNALEDQDLDA,4.17
8,FNYSVGFKDLFESLNALEDQDLDA,3.62
9,FNYSVGFKDLLESLNALEDQDLDA,3.78
10,FNYSVGFKDLSESLNALEDQDLDA,4.21
11,FNYSVGFKDLTESLNALEDQDLDA,4.58
12,FNYSVGFKDLDESLNALEDQDLDA,4.75
13,FNYSVGFKDLYESLNALEDQDLDA,3.25
14,FNYSVGFKDLWESLNALEDQDLDA,2.58
15,FNYSVGFKDLPESLNALEDQDLDA,4.23
16,FHYSVGFKDLNESLNALEDQDLDA,1.98
17,FMYSVGFKDLNESLNALEDQDLDA,1.99
18,FYYSVGFKDLNESLNALEDQDLDA,2.72
19,FFYSVGFKDLNESLNALEDQDLDA,3.07
20,FQYSVGFKDLNESLNALEDQDLDA,2.88
21,FGYSVGFKDLNESLNALEDQDLDA,4.39
22,FRYSVGFKDLNESLNALEDQDLDA,3.26
23,FWYSVGFKDLNESLNALEDQDLDA,2.4
24,FSYSVGFKDLNESLNALEDQDLDA,2.64

row,Variant,protein stability index
1,FIYSVGFKDLNESLNALEDQDLDA,4.43
2,FTYSVGFKDLNESLNALEDQDLDA,2.23
3,FLYSVGFKDLNESLNALEDQDLDA,2.01
4,FKYSVGFKDLNESLNALEDQDLDA,4.11
5,FPYSVGFKDLNESLNALEDQDLDA,2.44
6,FVYSVGFKDLNESLNALEDQDLDA,2.96
7,FNYSVGFQDLNESLNALEDQDLDA,4.72
8,FNYSVGFRDLNESLNALEDQDLDA,4.33
9,FNYSVGFGDLNESLNALEDQDLDA,4.65
10,FNYSVGFDDLNESLNALEDQDLDA,5.05
11,FNYSVGFVDLNESLNALEDQDLDA,3.52
12,FNYSVGFLDLNESLNALEDQDLDA,3.17
13,FNYSVGFNDLNESLNALEDQDLDA,4.74
14,FNYSVGFPDLNESLNALEDQDLDA,4.79
15,FNYSVGFHDLNESLNALEDQDLDA,3.81
16,FNYSVGFYDLNESLNALEDQDLDA,3.58
17,FNYSVGFMDLNESLNALEDQDLDA,3.73
18,FNYSVGFFDLNESLNALEDQDLDA,2.99
19,FNYSVGFADLNESLNALEDQDLDA,4.16
20,FNYSVGFSDLNESLNALEDQDLDA,4.56
21,FNYSVGFEDLNESLNALEDQDLDA,5.1
22,FNYSVGFWDLNESLNALEDQDLDA,2.27
23,FNYSVGFCDLNESLNALEDQDLDA,3.36
24,FNYSVGFIDLNESLNALEDQDLDA,2.51

row,Variant,protein stability index
1,FNYSVGFTDLNESLNALEDQDLDA,3.54
2,FNYSVGFKDYNESLNALEDQDLDA,4.52
3,FNYSVGFKDNNESLNALEDQDLDA,4.75
4,FNYSVGFKDGNESLNALEDQDLDA,4.95
5,FNYSVGFKDQNESLNALEDQDLDA,4.93
6,FNYSVGFKDMNESLNALEDQDLDA,4.81
7,FNYSVGFKDVNESLNALEDQDLDA,4.86
8,FNYSVGFKDFNESLNALEDQDLDA,3.95
9,FNYSVGFKDHNESLNALEDQDLDA,4.58
10,FNYSVGFKDKNESLNALEDQDLDA,4.88
11,FNYSVGFKDINESLNALEDQDLDA,4.26
12,FNYSVGFKDWNESLNALEDQDLDA,3.95
13,FNYSVGFKDCNESLNALEDQDLDA,3.5
14,FNYSVGFKDSNESLNALEDQDLDA,5.06
15,FNYSVGFKDANESLNALEDQDLDA,4.71
16,FNYSVGFKDTNESLNALEDQDLDA,4.55
17,FNYSVGFKDDNESLNALEDQDLDA,5.16
18,FNYSVGFKDENESLNALEDQDLDA,5.09
19,FNYSVGFKDPNESLNALEDQDLDA,4.62
20,FNYSVGFKDRNESLNALEDQDLDA,4.54
